Measured values taken from patent US20240317847A1 (Bayer, published 2024).
Where “and” joins values, the source holds several entries; their conditions need not be identical. Equal entries are not always repeated.

T1: human IL-11 (human, UniProt P20809 22-199)
T1 sequence: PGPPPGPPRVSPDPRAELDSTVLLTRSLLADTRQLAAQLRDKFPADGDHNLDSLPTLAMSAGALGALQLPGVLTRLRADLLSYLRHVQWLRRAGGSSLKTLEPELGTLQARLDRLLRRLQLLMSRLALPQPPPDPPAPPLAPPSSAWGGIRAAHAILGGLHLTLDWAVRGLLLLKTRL

T2: murine IL-11 (mouse, UniProt P47873 22-199)
T2 sequence: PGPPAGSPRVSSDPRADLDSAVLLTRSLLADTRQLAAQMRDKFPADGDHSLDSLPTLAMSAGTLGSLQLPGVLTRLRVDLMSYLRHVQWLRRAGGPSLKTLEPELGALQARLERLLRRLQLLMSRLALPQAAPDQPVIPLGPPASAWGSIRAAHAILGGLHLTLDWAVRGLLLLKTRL

T3: murine IL-11 (mouse, UniProt P47873 22-199)
T3 sequence: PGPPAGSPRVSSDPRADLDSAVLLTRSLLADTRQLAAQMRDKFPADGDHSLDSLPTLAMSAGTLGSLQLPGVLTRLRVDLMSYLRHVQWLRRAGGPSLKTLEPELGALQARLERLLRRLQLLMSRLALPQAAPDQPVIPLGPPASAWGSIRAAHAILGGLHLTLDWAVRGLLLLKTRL

T4: human IL-11 (human, UniProt P20809 22-199)
T4 sequence: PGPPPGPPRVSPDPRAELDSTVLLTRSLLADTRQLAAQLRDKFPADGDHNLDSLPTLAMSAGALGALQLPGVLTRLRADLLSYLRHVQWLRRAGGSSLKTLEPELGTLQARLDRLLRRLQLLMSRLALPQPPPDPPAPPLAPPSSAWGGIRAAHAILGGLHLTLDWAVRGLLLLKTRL


Key:
Test in all cases: cell-based or functional assay
human IL-11 [1] = target: T1, human IL-11
murine IL-11 [2] = target: T2, murine IL-11
murine IL-11 [3] = target: T3, murine IL-11; remark: listed apart in the source
human IL-11 [4] = target: T4, human IL-11; remark: listed apart in the source

| Binder | IC50, RGA 1 (human IL-11 [1]) | IC50, RGA 2 (human IL-11 [1]) [nM] | IC50, RGA 1 (murine IL-11 [2]) | IC50, RGA 2 (murine IL-11 [2]) [nM] | RGA Efficacy (%) (murine IL-11 [3]) | RGA IC50 (murine IL-11 [3]) [nM] | RGA Efficacy (%) (human IL-11 [4]) | RGA IC50 (human IL-11 [4]) [nM] |
| --- | --- | --- | --- | --- | --- | --- | --- | --- |
| TPP-31295 (antibody, IgG4, V domains shown) VH: EVQLLESGGGLVQPGGSLRLSCAASGFTFSHYDMNWLRQAPGKGLEWVGVISYDGSNKYYADFVKGRFTISRDNSKNTLYLQMNSLRAEDTAVYYCARTPGSHFDYWGQGTLVTVSS VL: QSVLTQPPSASGTPGQRVTISCSGSSSNIGNNAVNWYQQLPGTAPKLLIYYDDLLPSGVPDRFSGSKSGTSASLAISGLRSEDEADYYCSAWDDSLNGVVFGGGTKLTVL | 364 nM | 92 | 60 nM | 37 |  |  |  |  |
| TPP-31298 (antibody, IgG4, V domains shown) VH: EVQLLESGGGLVQPGGSLRLSCAASGFTFSHYDMNWLRQAPGKGLEWVGVISYDGSNKFYADFVKGRFTISRDNSKNTLYLQMNSLRAEDTAVYYCARTPGSHFDYWGQGTLVTVSS VL: QSVLTQPPSASGTPGQRVTISCSGSSSNIGNNAVNWYQQLPGTAPKLLIYYDDLLPSGVPDRFSGSKSGTSASLAISGLRSEDEADYYCSAWDDSLSGVVFGGGTKLTVL | 135 nM | 33 | 21 nM | 6.22 |  |  |  |  |
| TPP-31297 (antibody, IgG4, V domains shown) VH: EVQLLESGGGLVQPGGSLRLSCAASGFTFSHYDMNWLRQAPGKGLEWVGVISYDGSNKFYADFVKGRFTISRDNSKNTLYLQMNSLRAEDTAVYYCARTPGSHFDYWGQGTLVTVSS VL: QSVLTQPPSASGTPGQRVTISCSGSSSNIGNNAVNWYQQLPGTAPKLLIYYDDLLPSGVPDRFSGSKSGTSASLAISGLRSEDEADYYCSAWDDSLQGVVFGGGTKLTVL | 181 nM | 22 | 37 nM | 7.93 |  |  |  |  |
| TPP-18087 (antibody, mouse IgG1, V domains shown) VH: EVQLLESGGGLVQPGGSLRLSCAASGFTFSHYDMNWLRQAPGKGLEWVGVISYDGSNKFYADFVKGRFTISRDNSKNTLYLQMNSLRAEDTAVYYCARTPGSHFDYWGQGTLVTVSS VL: QSVLTQPPSASGTPGQRVTISCSGSSSNIGNNAVNWYQQLPGTAPKLLIYYDDLLPSGVPDRFSGSKSGTSASLAISGLRSEDEADYYCSAWDDSLNGVVFGGGTKLTVLG | 111 nM and 93 nM | 12 | 204 nM and 231 nM | 21 |  |  |  |  |
| TPP-31299 (antibody, IgG4, V domains shown) VH: EVQLLESGGGLVQPGGSLRLSCAASGFTFSHYDMNWLRQAPGKGLEWVGVISYDGSNKFYADFVKGRFTISRDNSKNTLYLQMNSLRAEDTAVYYCARTPGSHFDYWGQGTLVTVSS VL: QSVLTQPPSASGTPGQRVTISCSGSSSNIGNNAVNWYQQLPGTAPKLLIYYDDLLPSGVPDRFSGSKSGTSASLAISGLRSEDEADYYCSAWDDSLNAVVFGGGTKLTVL | 238 nM | 114 | 44 nM | 14 |  |  |  |  |
| TPP-26290 (antibody, V domains shown) VH: EVQLLESGGGLVQPGGSLRLSCAASGFTFSSYGMHWVRQAPGKGLEWVSVISYDGSYKYYADSVKGRFTISRDNSKNTLYLQMNSLRAEDTAVYYCAAGVPDYWGQGTLVTVSS VL: QSVLTQPPSASGTPGQRVTISCTGSSSNIGAGMDVHWYQQLPGTAPKLLIYSNNERPSGVPDRFSGSKSGTSASLAISGLRSEDEADYYCAAWDDSLNGPVFGGGTKLTVL |  |  |  |  | 95.1 | 0.97 | 75.9 | 4.7 |
| TPP-26312 (antibody, V domains shown) VH: EVQLLESGGGLVQPGGSLRLSCAASGFTFSSYGMHWVRQAPGKGLEWVSVISYDGSYKYYADSVKGRFTISRDNSKNTLYLQMNSLRAEDTAVYYCAAGVPDYWGQGTLVTVSS VL: QSVLTQPPSASGTPGQRVTISCTGSSSNIGAGLDVHWYQQLPGTAPKLLIYSNNERPSGVPDRFSGSKSGTSASLAISGLRSEDEADYYCAAWDDSLNGPVFGGGTKLTVL |  |  |  |  | 87.3 | 1.2 | 68.6 | 3.8 |
| TPP-26301 (antibody, V domains shown) VH: EVQLLESGGGLVQPGGSLRLSCAASGFTFSSYGMHWVRQAPGKGLEWVSVISYDGSYKYYADSVKGRFTISRDNSKNTLYLQMNSLRAEDTAVYYCAAGVPDYWGQGTLVTVSS VL: QSVLTQPPSASGTPGQRVTISCTGSSSNIGADYDVHWYQQLPGTAPKLLIYSNNERPSGVPDRFSGSKSGTSASLAISGLRSEDEADYYCAAWDDSLNGPVFGGGTKLTVL |  |  |  |  | 91.8 | 1.5 | 76.1 | 2.6 |

Further lines, results first:

| IC50, RGA 1 (human IL-11 [1]) | IC50, RGA 2 (human IL-11 [1]) [nM] | IC50, RGA 1 (murine IL-11 [2]) | IC50, RGA 2 (murine IL-11 [2]) [nM] | RGA Efficacy (%) (murine IL-11 [3]) | RGA IC50 (murine IL-11 [3]) [nM] | RGA Efficacy (%) (human IL-11 [4]) | RGA IC50 (human IL-11 [4]) [nM] | Binder |
| --- | --- | --- | --- | --- | --- | --- | --- | --- |
| 104 nM | 35 | 42 nM | 21 |  |  |  |  | TPP-31304 (antibody, IgG4, V domains shown) VH: EVQLLESGGGLVQPGGSLRLSCAASGFTFSHYDMNWLRQAPGKGLEWVGVISYDASNKFYADFVKGRFTISRDNSKNTLYLQMNSLRAEDTAVYYCARTPGSHFDYWGQGTLVTVSS VL: QSVLTQPPSASGTPGQRVTISCSGSSSNIGNNAVNWYQQLPGTAPKLLIYYDDLLPSGVPDRFSGSKSGTSASLAISGLRSEDEADYYCSAWDDSLNGVVFGGGTKLTVL |
| 18.9 nM | 9.71 | 4.43 nM | 1.77 |  |  |  |  | TPP-31301 (antibody, IgG4, V domains shown) VH: EVQLLESGGGLVQPGGSLRLSCAASGFTFSHYDMNWLRQAPGKGLEWVGVISYEGSNKFYADFVKGRFTISRDNSKNTLYLQMNSLRAEDTAVYYCARTPGSHFDYWGQGTLVTVSS VL: QSVLTQPPSASGTPGQRVTISCSGSSSNIGNNAVNWYQQLPGTAPKLLIYYDDLLPSGVPDRFSGSKSGTSASLAISGLRSEDEADYYCSAWDDSLQGVVFGGGTKLTVL |
| > 500 nM | 126 | 45 nM | 37 |  |  |  |  | TPP-31307 (antibody, IgG4, V domains shown) VH: EVQLLESGGGLVQPGGSLRLSCAASGFTFSHYDMNWLRQAPGKGLEWVGVISYDASNKFYADFVKGRFTISRDNSKNTLYLQMNSLRAEDTAVYYCARTPGSHFDYWGQGTLVTVSS VL: QSVLTQPPSASGTPGQRVTISCSGSSSNIGNNAVNWYQQLPGTAPKLLIYYDDLLPSGVPDRFSGSKSGTSASLAISGLRSEDEADYYCSAWDDSLNAVVFGGGTKLTVL |
| 182 nM | 47 | 30 nM | 29 |  |  |  |  | TPP-31305 (antibody, IgG4, V domains shown) VH: EVQLLESGGGLVQPGGSLRLSCAASGFTFSHYDMNWLRQAPGKGLEWVGVISYDASNKFYADFVKGRFTISRDNSKNTLYLQMNSLRAEDTAVYYCARTPGSHFDYWGQGTLVTVSS VL: QSVLTQPPSASGTPGQRVTISCSGSSSNIGNNAVNWYQQLPGTAPKLLIYYDDLLPSGVPDRFSGSKSGTSASLAISGLRSEDEADYYCSAWDDSLQGVVFGGGTKLTVL |
| 1.09 nM | 4.75 | 3.42 nM | 0.81 |  |  |  |  | TPP-31300 (antibody, IgG4, V domains shown) VH: EVQLLESGGGLVQPGGSLRLSCAASGFTFSHYDMNWLRQAPGKGLEWVGVISYEGSNKFYADFVKGRFTISRDNSKNTLYLQMNSLRAEDTAVYYCARTPGSHFDYWGQGTLVTVSS VL: QSVLTQPPSASGTPGQRVTISCSGSSSNIGNNAVNWYQQLPGTAPKLLIYYDDLLPSGVPDRFSGSKSGTSASLAISGLRSEDEADYYCSAWDDSLNGVVFGGGTKLTVL |
| 126 nM | 23 | 57 nM | 60 |  |  |  |  | TPP-31306 (antibody, IgG4, V domains shown) VH: EVQLLESGGGLVQPGGSLRLSCAASGFTFSHYDMNWLRQAPGKGLEWVGVISYDASNKFYADFVKGRFTISRDNSKNTLYLQMNSLRAEDTAVYYCARTPGSHFDYWGQGTLVTVSS VL: QSVLTQPPSASGTPGQRVTISCSGSSSNIGNNAVNWYQQLPGTAPKLLIYYDDLLPSGVPDRFSGSKSGTSASLAISGLRSEDEADYYCSAWDDSLSGVVFGGGTKLTVL |
| 14.5 nM | 7.13 | 3.49 nM | 1.17 |  |  |  |  | TPP-31302 (antibody, IgG4, V domains shown) VH: EVQLLESGGGLVQPGGSLRLSCAASGFTFSHYDMNWLRQAPGKGLEWVGVISYEGSNKFYADFVKGRFTISRDNSKNTLYLQMNSLRAEDTAVYYCARTPGSHFDYWGQGTLVTVSS VL: QSVLTQPPSASGTPGQRVTISCSGSSSNIGNNAVNWYQQLPGTAPKLLIYYDDLLPSGVPDRFSGSKSGTSASLAISGLRSEDEADYYCSAWDDSLSGVVFGGGTKLTVL |
| > 500 nM | > 500 | 63 nM | 170 |  |  |  |  | TPP-31308 (antibody, IgG4, V domains shown) VH: EVQLLESGGGLVQPGGSLRLSCAASGFTFSHYDMNWLRQAPGKGLEWVGVISYDSSNKFYADFVKGRFTISRDNSKNTLYLQMNSLRAEDTAVYYCARTPGSHFDYWGQGTLVTVSS VL: QSVLTQPPSASGTPGQRVTISCSGSSSNIGNNAVNWYQQLPGTAPKLLIYYDDLLPSGVPDRFSGSKSGTSASLAISGLRSEDEADYYCSAWDDSLNGVVFGGGTKLTVL |
| 9.08 nM | 11 | 4.38 nM | 2.49 |  |  |  |  | TPP-31303 (antibody, IgG4, V domains shown) VH: EVQLLESGGGLVQPGGSLRLSCAASGFTFSHYDMNWLRQAPGKGLEWVGVISYEGSNKFYADFVKGRFTISRDNSKNTLYLQMNSLRAEDTAVYYCARTPGSHFDYWGQGTLVTVSS VL: QSVLTQPPSASGTPGQRVTISCSGSSSNIGNNAVNWYQQLPGTAPKLLIYYDDLLPSGVPDRFSGSKSGTSASLAISGLRSEDEADYYCSAWDDSLNAVVFGGGTKLTVL |
